Test results reported in US20020086983A1 (THOMAS JEFFERSON UNIVERSITY, published 2002).
Blank lines part the entries; values can stand above or below the binder they belong to.

Key:
[1] = molecular target: T1, T7-FLAME-2 (Homo sapiens (Human), UniProt O75618 1-318); experiment: co-immunoprecipitation from transfected 293T cells with Flag-tagged Fas, with or without T7-FADD
T1 sequence: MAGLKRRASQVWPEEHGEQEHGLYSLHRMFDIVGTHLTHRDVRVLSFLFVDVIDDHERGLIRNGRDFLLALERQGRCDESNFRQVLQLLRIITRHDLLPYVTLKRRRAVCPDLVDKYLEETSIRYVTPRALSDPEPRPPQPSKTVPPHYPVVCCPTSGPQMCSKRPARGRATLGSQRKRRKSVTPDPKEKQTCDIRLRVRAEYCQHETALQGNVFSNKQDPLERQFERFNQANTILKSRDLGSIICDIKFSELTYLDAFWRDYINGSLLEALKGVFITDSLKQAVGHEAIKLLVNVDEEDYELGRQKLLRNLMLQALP
Method: After 34-36 h, extracts were prepared and immunoprecipitated with a monoclonal antibody to the Flag-epitope. […] Cells were lysed in a lysis buffer (50 mM Tris, pH 7.6, 150 mM NaCl, 0.1 NP-40) and incubated with anti Flag-M5 monoclonal antibody (IBI Kodak). The immune complexes were precipitated with protein-A/G-Sepharose, washed and then eluted by boiling in SDS-sample buffer. The eluted proteins were resolved by SDS-PAGE and detected by Western analysis with a HRP-conjugated T7-antibody (Novagen). The samples were analyzed by SDS-PAGE and Western blotted with a horseradish peroxidase (HRP)-conjugated T7-antibody. All extracts were immunoblotted with anti-Flag and anti-T7 to verify expression of the encoded proteins.

[2] = molecular target: LexA-FLAME-1-FDH (residues 1-160) (human, UniProt O15519 1-160); experiment: yeast two-hybrid assay

- binding result [1]: no binding
B1: Flag-tagged Fas (receptor, UniProt P25445 26-335, looked up, not shown: small tags and cut ends)
chain: QVTDINSKGLELRKTVTTVETQNLEGLHHDGQFCHKPCPPGERKARDCTVNGDEPDCVPCQEGKEYTDKAHFSSKCRRCRLCDEGHGLEVEINCTRTQNTKCRCKPNFFCNSTVCEHCDPCTKCEHGIIKECTLTSNTKCKEEGSRSNLGWLCLLLLPIPLIVWVKRKEVQKTCRKHRKENQGSHESPTLNPETVAINLSDVDLSKYITTIAGVMTLSQVKGFVRKNGVNEAKIDEIKNDNVQDTAEQKVQLLRNWHQLHGKKEAYDTLIKDLKKANLCTLAEKIQTIILKDITSDSENSNFRNEIQSLV
notes: Expressed in 293T cells and immunoprecipitated with the anti-Flag antibody

- binding result [2]: binds
B2: B42-FADD-DED (murine FADD-DED, residues 1-78) (other, UniProt Q61160 1-78, looked up, not shown: large carriers)
chain: MDPFLVLLHSLSGSLSGNDLMELKFLCRERVSKRKLERVQSGLDLFTVLLEQNDLERGHTGLLRELLASLRRHDLLQR
notes: range 1-78
